From patent US8735129B2, “Ginsenoside glycosidase derived from the genus Terrabacter, and use thereof” (Korea Research Institute of Bioscience and Biotechnology, priority 2009, dated 2014)

Key:
[1] = Specific activity of the enzyme with pNPGlc; type: biochemical
Procedure: Specific activity was measured using 90 μl of 50 mM sodium phosphate buffer containing 2.0 mM pNPGlc (p-nitrophenyl-β-D-glucopyranoside; Sigma) at pH 7.0, and 10 μl of the diluted purified enzyme was treated at 37° C. for 20 minutes before initiation of the reaction, followed by incubation. 0.1 ml of 1 M Na2CO3 was treated for 5 minutes to terminate the reaction, and the secretion of p-nitrophenol was immediately measured at 405 nm. One unit of activity was defined as the amount of enzyme that released 1 μmol of p-nitrophenol per minute. Specific activity is expressed in units per milligram protein. Protein concentration was measured using a Bio-Rad protein staining reagent according to the protocol. All analyses were performed at least three times.

[2] = type: biochemical; details: after incubation at 45° C. for 30 minutes
Procedure: The thermo-dependence of the activity was assayed in 50 mM potassium phosphate buffer at various temperatures ranging from 4 to 90° C. Thermostability was tested by incubating aliquots of the enzyme in 50 mM potassium phosphate buffer for 30 minutes at different temperatures. After cooling the sample on ice for 10 minutes, residual activity was determined by a standard analysis;
The pH effect on the enzymatic activity was measured using 2.0 mM pNPGlc in the following buffer (50 mM):
Buffer: pH range of 2 to 10: KCl—HCl (pH 2), glycine-HCl (pH 3), sodium acetic acid (pH 4 and 5), sodium phosphate (pH 6 and 7), Tris-HCl (pH 8 and 9) and glycine-sodium hydroxide (pH 10).
The enzyme was incubated in each of the above mentioned buffers at 4° C. for 24 hours, and then pHPGlc was analyzed in 50 mM potassium buffer to measure the enzymatic stability according to pH change. The activity was measured by the above mentioned method.
The results were represented as an activity probability obtained at the optimum pH.
The temperature-dependent activity in the 50 mM potassium phosphate buffer was analyzed within the temperature range of 4-90° C. using 2.0 mM pNPGlc at the optimum pH for 5 minutes. […] The sample was cooled in ice for 10 minutes, and the residual activity was measured by pNPGlc analysis.

[3] = Kinetic studies (Km, Vmax) with pNPGlc; type: biochemical; details: hydrolysis of pNPGlc, 37° C., Cleland program
Procedure: Kinetic studies were performed with freshly purified enzyme using pNPGlc at the concentrations from 0.1 mM to 0.6 mM. Its absorbance at 405 nm was monitored at 37° C. for 20 minutes. The resulting data were used to determine Km and Vmax using the Enzyme Kinetics Program reported by Cleland.
In order to examine the substrate specificity of Bgl-gyp17, it was incubated in 50 mM sodium phosphate buffer containing 2.0 mM βα and β-type p-NP (p-nitrophenyl) and oNP (O-nitrophenyl)-glycosidase at pH 7.0 and 37° C. […] The Km and Vmax for the hydrolysis of pNPGlc by ginsenoside glycosidase were determined using 0-2 mM substrate and the enzyme kinetics program reported by Cleland. The values measured by the program were 4.24 mM and 0.10 mmol*min^−1*mg of protein^−1 for pNpGlc.

B1: Bgl-gyp17: recombinant ginsenoside glycosidase from Terrabacter Gsoil 3082, SEQ ID NO. 1, 589 residues (protein, listed as Terrebacter sp.)
chain: MDPYEDPRLPVEVRVEDLLGRLSLEEKVGLMFQTVIEAGSDGTVLEHPGSISKSPTSTVVLDKHLTHFNVHALDDPRMAARWSNALQALAERTPHGIPVTVSTDPRHAFIENVGVSFSAGAFSQWPEPLGLAALRDADAVRRFADIARQEYVAVGIRAALHPTLDLATEPRWARQAGTFGQDPDLVTELGVAYLKGFQGDSLGSGSVACTSKHFPGGGPQKDGEDAHFPYGREQVYPGGRFADHLKPFPPIIEAGTAGIMPYYGMPVDLVVDGVEIEPIGFGYNKQVVTGLLREKLGYDGVVVTDWELVNDNHVGDQVLPARAWGVEHLDPHGRMELILEAGADQFGGEECVEILLDLVAQGRVTEARVDESARRILAVKFRLGLFENPYVDEDEAAATVGRDDFREEGYAAQARSVTVLHHEGGRLPLEHGLRIYAEQVSPEAVARHGKLVDRPEDADVAVVRLTAPFDPRSDLFLESWFHQGSLDFPPGLVARLERIAAVCPLVVDVVLDRPAVLTPLLRFASAVVGSFGSCDDALLDALTGTIAPVGRLPFDLPRSMDQVRAHGEDVPGYDDPLFPFGHGLRLDTE
modifications: PEPTIDE (1)..(589) amino acid sequence of Bgl-gyp17
notes: 1, 589 residues
[1]; control without metal ions or reagents, Table 5
  specific activity at 100%: ^aThe specific activity at 100% was 44.3 U/mg.
[1]; purification step: Crude extract
  Specific activity (U/mg): 23.4 U/mg
[1]; purification step: DEAE-cellulose purification
  Specific activity (U/mg): 65.8 U/mg
[1]; purification step: Ni purification
  Specific activity (U/mg): 65.0 U/mg
[2]
  loss of activity: approximately 32%
[3]
  Km: 4.24 mM
  Vmax: 0.10 mmol*min^−1*mg of protein^−1
